Laboratory results from paper PMC10770124, “Cryo-EM structures of human SID-1 transmembrane family proteins and implications for their low-pH-dependent RNA transport activity” (Cell Research, 2023).
Values belong to the molecule of their own block, whether it stands above or below them.

How the values were obtained:
[1] = molecular target: truncated extracellular domain of SIDT2 (SIDT2^ECD) (human); assay: AUC; sedimentation velocity (SV-AUC) of the truncated ECDs in solution, no RNA
[2] = molecular target: the molecule itself; assay: cryo-EM structure; single-particle cryo-EM of SIDT1 (3.33 Å) and SIDT2 (3.17 Å); homodimers with a two-fold axis

stoichiometry N [1]: 2
Molecule: truncated extracellular domain of SIDT2 (SIDT2^ECD) (domain or fragment)

B1: human SIDT2, full-length (purified, used for cryo-EM and blue native gel) (natural protein, UniProt Q8NBJ9 19-832, looked up)
chain: HLGVLGPKNVSQKDAEFERTYVDEVNSELVNIYTFNHTVTRNRTEGVRVSVNVLNKQKGAPLLFVVRQKEAVVSFQVPLILRGMFQRKYLYQKVERTLCQPPTKNESEIQFFYVDVSTLSPVNTTYQLRVSRMDDFVLRTGEQFSFNTTAAQPQYFKYEFPEGVDSVIVKVTSNKAFPCSVISIQDVLCPVYDLDNNVAFIGMYQTMTKKAAITVQRKDFPSNSFYVVVVVKTEDQACGGSLPFYPFAEDEPVDQGHRQKTLSVLVSQAVTSEAYVSGMLFCLGIFLSFYLLTVLLACWENWRQKKKTLLVAIDRACPESGHPRVLADSFPGSSPYEGYNYGSFENVSGSTDGLVDSAGTGDLSYGYQGRSFEPVGTRPRVDSMSSVEEDDYDTLTDIDSDKNVIRTKQYLYVADLARKDKRVLRKKYQIYFWNIATIAVFYALPVVQLVITYQTVVNVTGNQDICYYNFLCAHPLGNLSAFNNILSNLGYILLGLLFLLIILQREINHNRALLRNDLCALECGIPKHFGLFYAMGTALMMEGLLSACYHVCPNYTNFQFDTSFMYMIAGLCMLKLYQKRHPDINASAYSAYACLAIVIFFSVLGVVFGKGNTAFWIVFSIIHIIATLLLSTQLYYMGRWKLDSGIFRRILHVLYTDCIRQCSGPLYVDRMVLLVMGNVINWSLAAYGLIMRPNDFASYLLAIGICNLLLYFAFYIIMKLRSGERIKLIPLLCIVCTSVVWGFALFFFFQGLSTWQKTPAESREHNRDCILLDFFDDHDIWHFLSSIAMFGSFLVLLTLDDDLDTVQRDKIYVF
modifications: N-glycosylation (six sites on the ECD resolved in the EM map); disulfide bonds
notes: SIDT2, human, full-length; Homodimer in the cryo-EM map; the self rows mean protomer with protomer; also called SID-1 transmembrane family member 2; source: cloned, expressed and purified
stoichiometry N [2]: 2

B2: human SIDT1, full-length (purified, used for cryo-EM and blue native gel) (natural protein, UniProt Q9NXL6 20-827, looked up)
chain: ASPGHPAKSPRQPPAPRRDPFDAARGADFDHVYSGVVNLSTENIYSFNYTSQPDQVTAVRVYVNSSSENLNYPVLVVVRQQKEVLSWQVPLLFQGLYQRSYNYQEVSRTLCPSEATNETGPLQQLIFVDVASMAPLGAQYKLLVTKLKHFQLRTNVAFHFTASPSQPQYFLYKFPKDVDSVIIKVVSEMAYPCSVVSVQNIMCPVYDLDHNVEFNGVYQSMTKKAAITLQKKDFPGEQFFVVFVIKPEDYACGGSFFIQEKENQTWNLQRKKNLEVTIVPSIKESVYVKSSLFSVFIFLSFYLGCLLVGFVHYLRFQRKSIDGSFGSNDGSGNMVASHPIAASTPEGSNYGTIDESSSSPGRQMSSSDGGPPGQSDTDSSVEESDFDTMPDIESDKNIIRTKMFLYLSDLSRKDRRIVSKKYKIYFWNIITIAVFYALPVIQLVITYQTVVNVTGNQDICYYNFLCAHPLGVLSAFNNILSNLGHVLLGFLFLLIVLRRDILHRRALEAKDIFAVEYGIPKHFGLFYAMGIALMMEGVLSACYHVCPNYSNFQFDTSFMYMIAGLCMLKLYQTRHPDINASAYSAYASFAVVIMVTVLGVVFGKNDVWFWVIFSAIHVLASLALSTQIYYMGRFKIDLGIFRRAAMVFYTDCIQQCSRPLYMDRMVLLVVGNLVNWSFALFGLIYRPRDFASYMLGIFICNLLLYLAFYIIMKLRSSEKVLPVPLFCIVATAVMWAAALYFFFQNLSSWEGTPAESREKNRECILLDFFDDHDIWHFLSATALFFSFLVLLTLDDDLDVVRRDQIPVF
modifications: N-glycosylation (three sites resolved in the EM map); disulfide bonds C130-C222 and C212-C271
notes: SIDT1, human, full-length; Homodimer in the cryo-EM map; the self rows mean protomer with protomer; also called SID-1 transmembrane family member 1; source: cloned, expressed and purified
stoichiometry N [2]: 2
